According to the DeepSol protein solubility set:

experiment: soluble on expression in E. coli; label from the status in PepcDB or PDB records

Sequence | soluble on expression in E. coli
MSLSENIAAYVGLDVHKETLAVAIAAPERLGEVRYYGTINNEAQAVRRLFQKLQGLYGNILSCYEAGPCGFGLYHQLTAMNIKCQVIAPSRIPKSPTDRIKNDHRDAISLARLLRAGELTPVWIPDLTHEAMRDLIRARAAAKRDSRVARQRILSMLLRTDKHYAGKHWTGKHRTWLANQSFSQPSQQIAFQHYCQSLEQIEDRILQLDQEISRLLPEWSLCNLVCQLQALKGVGQLIAITLVAELGDFSRFSNPKQLMAFLGLVPGEYSSGNSIRPRGITKVGNSELRRLLYEAAWSYRTPAKVGAWLIYYRPDSVTQYSKDIAWKAQQRLCSRYRSLTAKGKKSQVAITAVARELTGFMWDIALAEGHHHHHH | not soluble
MQYTLKQISEHLNAKVINEPSGEVIITGLTYAEQAKENDLTLIDKQEHIKLWQNSKATAAIVSKKISKELAQVNDKPLIVVNNADLAMAKILELFSVPYPEQNGIHEKAIIDPTAKIGKNVSIGPSAYIGKNVEIGDNTIIYANVCIYNDAKVGTNCIIWPSVIIRDRTIIGHFCRLCSNCSIGSDGFGYRPSEDGRTIVRIPHIGNVVIGSFVDIGSNTCINNAKYGSTIIGDYTKIDNLVQIGHNVIIGKGCMICGQAGISGSVTIGDGVIIAGNAGIKDHTNIGSDARIGGKAGVMWDVPAGESHMGYPAYKDSELAKQWIAIRKLPETMKKLKAIAKSLNIDL | not soluble
GSHMLKEVWEELDGLDPNRFNPKTFFILHDINSDGVLDEQELEALFTKELEKVYDPKNEEDDMREMEEERLRMREHVMKNVDTNQDRLVTLEEFLASTQRKEF | soluble
MSLKLITCDLDGTLLNSSMEISDANVQAIKRAQENGIEFMVASGRAPHESQPMLKEYWIDCSFINLNGGLVFDTAGNLIVKNPLKLETAKKICRLLKKEGFYFELVTSNHVYSEDLSQRITNVAHLMVELNPMLTFKEAVLVSASKPAIVSIQQVPSYEDLMDEPGTEVMKILVFDSRGQYAFTDVIKKIEEIDKLSITSSAADNIEINAASAQKGQSLLDYAAAKGIKREEIAAIGDNLNDESMIQAAGTGVAMGNAVPQIKTIASFVTKSNNEDGVAWAIDKIIADNQKEGHHHHHH | soluble
NKDNLDLAGLTSLLSEKIKEFLQEKKMQSFYQQELETVESLQSLASRPVTHSTGSDQVELKDSGTSGVAQRVFKNALQLLQEKGLVFQRDSGSDKLYYVTTKDKDLQ | soluble
MDVTQLKMLRNAKVVSEIKKGFSIDKKYQVDETYLVRVFPKELLQTRKQEFEIIQALGSQTPFVPRAYDFGCTGGEGYMIIGYVRGEDAENGMFRLSHSEQFKAGFSAGEILREVHKIPLDIPKMNWLDFQTAKFKRKVEELKELEITASFLTETEQFVYENIARLKNRPVCLQHGDFHPANIILKNKKFAGLIDFNRLEFGDPLFDLAKIGFFTTEVSIPFARGNILGYIDKEEVTDFWNLYALYTAMHITSAVNWAAKNESRNFNKLMNYAAKTAASHDNFQKLMPDWMNKEEFK | not soluble
MLAQLTISNFAIVRELEIDFHSGMTVITGETGAGKSIAIDALGLCLGGRAEADMVRTGAARADLCARFSLKDTPAALRWLEENQLEDGHECLLRRVISSDGRSRGFINGTAVPLSQLRELGQLLIQIHGQHAHQLLTKPEHQKFLLDGYANETSLLQEMTARYQLWHQSCRDLAHHQQLSQERAARAELLQYQLKELNEFNPQPGEFEQIDEEYKRLANSGQLLTTSQNALALMADGEDANLQSQLYTAKQLVSELIGMDSKLSGVLDMLEEATIQIVEASDELRHYCDRLDLDPNRLFELEQRISKQISLARKHHVSPETLPQYYQSLLEEQQQLDDQADSQETLALAVTKHHQQALETARALHQQRQHYAEELAQLITDSMHALSMPHGQFTIDVKFDEHHLGADGADRIEFRVTTNPGQPMQPIAKVASGGELSRIALAIQVITARKMETPALIFDEVDVGISGPTAAVVGKLLRQLGESTQVMCVTHLPQVAGCGHQHYFVSKETDGAMTETHMQSLNKKTRLQELARLLGGSEVTRNTLANAKELLAA | not soluble
MSETPEYGVLSWWDYGNWIVYVGKRPAVSNNFQTGVEDSANFLLTDSEEEAKTIVEKLKVKYVMTDTLMAEGKFSSITSLAGKEIGEYYEVETVKGDTGLRTVATPKQALLQTQVYKLHKLDGTSLGHFRLVHESAVNSTDDGNSKENTVKVFEYVKGATLSGTLEHHHHHH | not soluble
MAEEIQMYDDAASVAFIRNFIPQELKEKMTDDDIVYIVDLIYDFYESRGFMDMAEDSEETVEVDEDELVEYVVKNAARDEVGHFSADEIRFVVQGELEYCESINLFEED | not soluble
MGHHHHHHSHQKGRYTELVEEKYKLFGELYKTFTKGGLICCSIESPNQEEQEVETDWGLLKGHTYTMTDIRKIRLGERLVEVFSAEKVYMVRLRNPLGRQEWSGPWSEISEEWQQLTASDRKNLGLVMSDDGEFWMSLEDFCRNFHKLNVCRNVNNPIFGR | not soluble
MDQQSTRTDITVNVDGFWMLQALLDIRHVAPELRCRPYVSTDSNDWLNEHPGMAVMREQGIVVNDAVNEQVAARMKVLAAPDLEVVALLSRGKLLYGVIDDENQPPGSRDIPDNEFRVVLARRGQHWVSAVRVGNDITVDDVTVSDSASIAALVMDGLESIHHADPAAINAVNVPMEEMLEATKSWQESGFNVFSGGDLRRMGISAATVAALGQALSDPAAEVAVYARQYRDDAKGPSASVLSLKDGSGGRIALYQQARTAGSGEAWLAICPATPQLVQVGVKTVLDTLPYGEWKTHSRV | soluble
AKFREIANIALGKGAAIMADHLHEFIQLPVPHVGPLSYGELHMTLVDVIGRDSSVAVSQRFVGGGIHGEALVCLRGKDINQIGERLGYLLEFTPHNEIILNVSNLLVSSFLTSLGNQLDKQFSLRQPGIVDTITPYNEEQGESGELFTIEYTYMAEALDFECEVLFLIDKPSVEIIYEIMELI | not soluble
MDSTMSEHADVLIVGGGPVGALAALRLARQGRSVLLLEARAKDAEVRDARALALSWHSRRLLEEAGAWPADLPATAIDTVHVSQQGGCGRTRLDSADLGLPHLGAVVDYPALVAGLGGALEAAGVQVIWQCRVTAVKSLSQYACAEVETPQGKQLLTGSLLVLAEGGALAETLPGIRRLTHDYRQCALLAEVETELPPQGVAYERFAHAGPFALLPHGERYMLVWTRSQADAERLAAADAAVLRDELQQAFGERQGRILSIGPRASFPLALRQANRVTSGRVALIGNAAQTMHPVAAQGLNLGLRDAVGLADALENAADAGDARALKRYADSRKLDSHAVVGFTHGLIKLFDGHHPLMSRLRGVGMTALDALPSLRRKFAGHLVFGVRGLEHHHHHH | soluble
AEEHEHHHHDEEHAHHHHHEGSEVDEYGISTFVYYRRPAFDIHKFDRFVSTQWSRNIIRAKGVCYFSNNRDMSFLFEQAGVQKKLKEAGLWYATAPEEELIEVIRQEPGLLRDWDDKYGDRMQKIVFIGRHLDKEELIRELDECLE | not soluble
MGSDKIHHHHHHMIEVTQGSSPLVLGLPHTGTDVPAEVAQHLNDRGQALADTDWHIHDLYAGLVEGVTTVRTPIHRYVIDVNRDPEGVSLYPGQNTTTLVPLTDFDGHPIWQQEPDAAETAHRLETYHVPYHAALEAEMKRVAGLHGFAILYDCHSIRGDIPFLFEGRLPDFNVGTNLGATCAPSIEDMVFQRCQRAEGYTSVLNGRFKGGWTTRHYGRPDQGWHAIQMELAQATYCDEQPPWRYDPVRADRLRGHLTQILTDLTEWRPA | not soluble
MSLKHLKGNKNTFQKRMYCKKTEIDLSKSGTGLFPGAFYMNRHVKRVILPDYADTVPANLFKGCINLKEVTLPIDPNIGEAAFEGCISLTDIHIPLCIGSIATNAFRGCRENIRFYADSPAVNPKTLKQHIEKELGHSIELYNASGNLVESTEGHHHHHH | soluble
MSLTFHEIRFPEDISYGSTGGPEFSTSIVQTNNGSEYRKVNLSYSRNKYNIMYNMKSEDQLLKLINFFYVHKGKAIGFRFKDWSDYKAKKEHIGIGNDKQKKFQIIKTYSIDQHSYIRKITKPVINTVKIYYDDIEKVDGFSVNFSNGQIEFNTPPHNGVTIYADYEFDVPVRFDSDYLPYSMDNYNEHNCNNIALIEIKTEGHHHHHH | soluble
MADKLFSIRNYFFLGSYQSCIGEALKFSSKNEEEKQEKDVYLYRSYIAQGQAFIPLKEIPAATKSADLAAVRRYAEFRNNPAAKKKILAEVQEEVASRNIKSEIAAVLAATILNEADLSQDAFRAVSRFEGLEARASKVFILIKMNKRKLAIGEVKKMNQIDEDATLSQLANALVTSFGASGKVKDALYIYSEMSDKYGRTTDLEMHQAVVSILTQDYAAAEELLESALERDNKDADVLINSIVSAQLNEKDDDVVERFISQLKHEHPNHPWVIDFNEKEAEFDRVASDSRA | not soluble
GSHMECADVPLLTPSSKEMMSQALKATFSGFTKEQQRLGIPKDPRQWTETHVRDWVMWAVNEFSLKGVDFQKFCMSGAALCALGKECFLELAPDFVGDILWEHLEILQKEDVK | soluble
MAKDGGVSCLRRSEMIGIGIGELESPPLDSDQVHVLAVDDSLVDRIVIERLLRITSCKVTAVDSGWRALEFLGLDDDKAAVEFDRLKVDLIITDYCMPGMTGYELLKKIKESTSFKEVPVVIMSSENVMTRIDRCLEEGAEDFLLKPVKLADVKRLRSYLTRDVKVAAEGNKRKLTTPPPPPPLSATSSMESSDSTVESPLSMVDDEDSLTMSPESATSLVDSPMRSPGLA | not soluble
MKVAIVHNSEEKSKQVTKQLTTLLEQNQIQIDNRQPELVISVGGDGTLLSAFHRFNHLLNEVSFLGVHTGHLGFYTDWRDYELKELVESLCIHREKSTSYPLLDVRIRFRDGKPDKHFLALNESTIKRGNRTMVGDVFIKDELFERFRGDGLSISTPTGSTAYNKSIGGAVLHPSINAFQLTEIASLNNRVFRTLGSPIVIAHTEWLEIKLQESDDYFVTVDQLDIYQENIASVCYRIADERIHFASYRHMHFWHRVKDAFIGEDLEHHHHHH | soluble
MPEITESERAYHLRKMKTRMQRVDVTGDGFISREDYELIAVRIAKIAKLSAEKAEETRQEFLRVADQLGLAPGVRISVEEAAVNATDSLLKMKGEEKAMAVIQSLIMYDCIDTDKDGYVSLPEFKAFLQAVGPDLTDDKAITCFNTLDFNKNGQISRDEFLVTVNDFLFGLEETALANAFYGDLVD | soluble
MGSDKIHHHHHHMERMSIKYFVNNNSLGPDRNISSVGFEEIPPNTSYPTLNHSAGYYFNPDKGRILTEYQLIYITEGEGVLETRSGGVFTIKRGMIFVLFPGEWHTYYPNYQTGWSHYWIGFCGPEVDSWMTNEYCSKESPVFKVGINDEIVSLFRKAIDVANEEPTLYQRVLSGLVTYLVALMCSIDKNLQVENDDFSSKIDYACVLMKELIDQPVSMQEIAKKAGMGYSLFRKLFKEQKNYAPVQYFQNLKIQKAIELLTTTTIPVKEIAYRLDFESPAYFSARFKKQTGKSPIEYREEFRIK | not soluble
MKAFISENVRGIYAFDENGNLIEKRYFTDKPEKVLDQLLKGEITKDLEELLNSLKEKGYDEFVFEHPELSRRAKELGFSATTEFPNIAGERLRSNPEEFLGENWFEEYYKVGVALTRMRIQEQSGARDKMVIQAIEALDDVDKVINLLVARLREWYSLHFPELDELLPKHPQYVAFVKTVGHRDNINEEVLRELGLSEEKIKKILEAKEKTMGAWMDQTDIEVVRQLAEEIDRLYQLRKKLEDYIDRAMDDVAPNLKALVGAKLAARLISLAGGLRELAMMPSSTIQVLGAEKALFRHLRTGAKPPKHGVIYQYPAINRSPWWQRGKIARALAGKLAIAARVDYFSGEYIAEELKKELEARIREIKEKYPKPPKRKREERKGKKPWKKDKKKKKKKEKPRRRAAALEHHHHHH | not soluble
